In publication PMC5078793:

Target: ADAMTS6 C-terminal region (human) (UniProt Q9UKP5)
Experiment: SPR; Biacore; ADAMTS protein (full-length or C-terminal region) immobilised by amine coupling on CM5 (~3000 RU); analyte injected at 30 ul/min; 10 mM HEPES pH 7.4, 0.1 M NaCl, 0.5 mM CaCl2, 0.005% P20; 1:1 kinetics or equilibrium analysis

Chain of ADAMTS6 C-terminal region (human) (Q9UKP5 558-1117): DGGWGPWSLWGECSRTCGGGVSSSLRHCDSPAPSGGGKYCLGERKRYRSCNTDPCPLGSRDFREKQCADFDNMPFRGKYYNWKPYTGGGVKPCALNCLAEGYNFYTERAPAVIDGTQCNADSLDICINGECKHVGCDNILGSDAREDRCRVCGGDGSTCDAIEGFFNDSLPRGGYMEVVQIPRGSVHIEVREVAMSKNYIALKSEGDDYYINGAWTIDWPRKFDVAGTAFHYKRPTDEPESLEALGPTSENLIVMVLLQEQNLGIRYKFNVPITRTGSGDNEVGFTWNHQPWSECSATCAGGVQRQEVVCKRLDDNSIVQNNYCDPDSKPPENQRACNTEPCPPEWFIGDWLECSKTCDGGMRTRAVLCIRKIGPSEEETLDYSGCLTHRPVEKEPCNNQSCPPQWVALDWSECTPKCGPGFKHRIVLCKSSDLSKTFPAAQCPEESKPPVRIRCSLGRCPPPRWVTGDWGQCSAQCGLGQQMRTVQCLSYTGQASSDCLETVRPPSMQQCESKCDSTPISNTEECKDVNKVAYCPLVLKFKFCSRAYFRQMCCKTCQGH

## cellular fibronectin (natural protein)
  Kd: 9.8 nM
